{"source": "IntAct's records for PubMed 17699755", "biological_target": "hfr1_arath HFR1 (UniProt Q9FE22)", "sequence (Q9FE22 whole entry)": "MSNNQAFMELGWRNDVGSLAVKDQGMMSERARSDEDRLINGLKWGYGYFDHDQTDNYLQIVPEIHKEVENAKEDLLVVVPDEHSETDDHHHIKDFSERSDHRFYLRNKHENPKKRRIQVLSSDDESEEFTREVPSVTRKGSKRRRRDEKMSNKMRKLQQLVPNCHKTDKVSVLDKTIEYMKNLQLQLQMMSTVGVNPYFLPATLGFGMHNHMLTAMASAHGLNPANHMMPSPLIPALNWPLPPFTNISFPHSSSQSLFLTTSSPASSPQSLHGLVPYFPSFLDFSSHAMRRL"}
{"substance": "Transcription factor LAF1 (Arabidopsis thaliana (Mouse-ear cress)), Q9M0K4 R97A", "values": [{"measurement": "effect of a mutation on the interaction", "value": "disrupting interaction"}]}
{"substance": "Transcription factor LAF1 (Arabidopsis thaliana (Mouse-ear cress)), Q9M0K4 W87A", "values": [{"measurement": "effect of a mutation on the interaction", "value": "decreasing interaction"}]}
